For three molecules, Km, kcat and kcat/Km results are on record in article PMC11357561, “Efficient 2,3-Butanediol Production from Ethanol by a Modified Four-Enzyme Synthetic Biosystem” (Molecules, 2024).

Holding throughout (assay): acetoin formation, Voges-Proskauer test, Michaelis-Menten fit
Common to all, as to settings: 100 mM phosphate pH 8.0, 0.1 mM TPP, 1 mM Mg2+, 2-600 mM acetaldehyde

Data set [1] deals with T1, formolase (FLS) (Pseudomonas fluorescens, UniProt Q9F4L3, A28I/W89R/L90T/R188H/A394G/G419N/A480W/L482E).
T1 construct: gene bznB; computationally designed formolase derived from benzaldehyde lyase; pET28a, E. coli BL21(DE3), Ni-NTA His-tag purified
T1 sequence (Q9F4L3 1-563 A28I/W89R/L90T/R188H/A394G/G419N/A480W/L482E): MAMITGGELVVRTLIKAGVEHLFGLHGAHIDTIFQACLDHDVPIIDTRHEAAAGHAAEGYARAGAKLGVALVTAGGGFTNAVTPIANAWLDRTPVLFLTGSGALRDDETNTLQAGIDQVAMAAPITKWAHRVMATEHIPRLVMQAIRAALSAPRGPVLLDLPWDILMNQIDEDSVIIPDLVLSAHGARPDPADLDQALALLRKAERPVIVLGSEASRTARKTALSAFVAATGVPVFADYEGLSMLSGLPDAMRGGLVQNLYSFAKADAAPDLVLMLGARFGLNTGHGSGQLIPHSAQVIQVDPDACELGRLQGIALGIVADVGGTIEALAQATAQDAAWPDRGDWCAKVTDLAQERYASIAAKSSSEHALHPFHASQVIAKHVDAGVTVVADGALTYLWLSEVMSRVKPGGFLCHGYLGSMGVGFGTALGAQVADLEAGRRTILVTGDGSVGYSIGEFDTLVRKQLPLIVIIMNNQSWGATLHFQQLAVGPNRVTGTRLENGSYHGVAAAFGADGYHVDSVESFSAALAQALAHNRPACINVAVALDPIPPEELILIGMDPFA
In kind it is biochemical. An excerpt: (§1) acetoin formation, Voges-Proskauer test, Michaelis-Menten fit on formolase (FLS)

In data set [2] the target is T2, formolase (FLS) (Pseudomonas fluorescens, UniProt Q9F4L3, A28I/W89R/L90T/R188H/A394G/G419N/A480W).
T2 construct: gene bznB; computationally designed formolase derived from benzaldehyde lyase; pET28a, E. coli BL21(DE3), Ni-NTA His-tag purified
T2 sequence (Q9F4L3 1-563 A28I/W89R/L90T/R188H/A394G/G419N/A480W): T1 sequence (Q9F4L3 1-563 A28I/W89R/L90T/R188H/A394G/G419N/A480W/L482E)
Type of data set: biochemical.
Excerpt: as §1

Data set [3] deals with T3, CC=O.
T3 construct: computationally designed formolase derived from benzaldehyde lyase; pET28a, E. coli BL21(DE3), Ni-NTA His-tag purified
Type of data set: biochemical, Pseudomonas fluorescens.
Excerpt: as §1

For orientation: Km means the concentration of substrate that gives half-maximal velocity. The kcat is the maximal rate divided by the concentration of active sites. As usually defined, the kcat/Km is the second-order rate constant that governs catalysis at low substrate concentration.

Consider `CC=O` [acetaldehyde], for which the figures for the Michaelis-Menten constant (Km) in data set [1] and in data set [2] were 50.9 ± 3.22 mM and 58.5 ± 2.32 mM, respectively.
As to “formolase (FLS) (Pseudomonas fluorescens; A28I/A394G/A480W/F484A/G419N/L90T/R188H/W89R)”, in data set [3], the Km came out at 53.28 ± 2.52 mM, the kcat is 1.74 ± 0.12 s⁻¹ and the catalytic efficiency (kcat/Km) turned out to be 32.6 M⁻¹ s⁻¹.
For the molecule “formolase (FLS) (Pseudomonas fluorescens; A28V/A394G/A480W/G419N/L90T/R188H/W89R)”, in data set [3], the Km is recorded as 81.95 ± 3.61 mM, the kcat was 3.33 ± 0.21 s⁻¹ and the catalytic efficiency (kcat/Km) turned out to be 40.6 M⁻¹ s⁻¹.
